In patent publication US5733874A, “Stable dry powders” (Novartis Corp., priority 1994, dated 1998):

Assay: RP-HPLC chromatogram of recombinant hirudin HV1 in water (FIG. 1)
Format: physicochemical
Conditions: 1 mg/ml hirudin in water
Experimental: RP-HPLC method: A LiChroCART 125-4 column is used (Merck LiChrospher 100 RP-18 5pm). Solvent A is 0.5% ammoniumacetate in acetonitrile/water (10:90), (v:v); solvent B is 0.5% ammoniumacetate in acetonitrile/water (25:75). The elution is performed at 45° C. using a flow rate of 0.5 ml/min. The binary elution is a linear gradient starting at time zero with 23% solvent B and reaching 46% solvent B after 24 minutes. After 2 min at 70% solvent B the column is equilibrated for 7 rain at 23% solvent B.
A typical chromatogram of recombinant hirudin HV1 (CGP 39393) in water using the RP-HPLC (1 mg/ml hirudin) method is shown in FIG. 1.
In FIG. 1, the relative area of the main peak is 95.15%. Storage of hirudin in water at room temperature results in an increase of by products with time. […] The changes which occur can be accelerated by using temperature stress experiments i.e. by storage at elevated temperatures.

Substance: desulphatohirudin HV1 [CGP 39393]
- relative area of the main peak: 95.15%
